What all share (test): ELASA
Holding throughout (conditions): ELASA: VLPs 3 ug/ml coated, blocked with 5% skim milk in PBST plus unrelated DNA, 1 uM biotinylated aptamer (10 nM-2 uM for Kd), 1 h at RT, PBST washes

Data set [1] has as its system GI.4 VLP, major capsid protein (Human norovirus GI.4).
Data set [2] concerns GI.6 VLP, major capsid protein (Human norovirus GI.6).
In data set [3] the test system is GI.7 VLP, major capsid protein (Human norovirus GI.7).
Data set [4] relates to GI.8 VLP, major capsid protein (Human norovirus GI.8).
Data set [5] relates to GII.1 VLP, major capsid protein (Human norovirus GII.1).
Data set [6] concerns GII.12 VLP, major capsid protein (Human norovirus GII.12).
Data set [7] concerns GII.17 VLP, major capsid protein (Human norovirus GII.17).
Data set [8] addresses T1, GII.2 (SMV) VLP, major capsid protein (Human norovirus GII.2 (Snow Mountain virus)) (UniProt K7X601).
T1 sequence: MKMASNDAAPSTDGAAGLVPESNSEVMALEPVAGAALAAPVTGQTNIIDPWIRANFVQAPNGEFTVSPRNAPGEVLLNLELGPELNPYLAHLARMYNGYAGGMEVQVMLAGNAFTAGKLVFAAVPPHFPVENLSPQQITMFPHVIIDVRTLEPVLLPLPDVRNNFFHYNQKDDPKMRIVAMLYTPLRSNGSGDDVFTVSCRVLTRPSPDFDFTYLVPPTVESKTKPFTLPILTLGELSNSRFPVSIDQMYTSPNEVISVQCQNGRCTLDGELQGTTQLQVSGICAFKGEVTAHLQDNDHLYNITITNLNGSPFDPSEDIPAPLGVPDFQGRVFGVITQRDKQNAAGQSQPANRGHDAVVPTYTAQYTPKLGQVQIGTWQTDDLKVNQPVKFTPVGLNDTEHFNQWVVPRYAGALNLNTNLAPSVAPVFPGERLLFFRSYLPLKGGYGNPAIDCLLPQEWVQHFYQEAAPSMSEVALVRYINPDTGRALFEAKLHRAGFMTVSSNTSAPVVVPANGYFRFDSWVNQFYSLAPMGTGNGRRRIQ

The subject of data set [9] is GII.3 VLP, major capsid protein (Human norovirus GII.3).
For data set [10], the system named is GII.4 (Grimsby) VLP, major capsid protein (Human norovirus GII.4 (Grimsby virus)).
The test system of data set [11] is GII.4 (Houston) VLP, major capsid protein (Human norovirus GII.4 (Houston)).
Data set [12] concerns GII.6 VLP, major capsid protein (Human norovirus GII.6).
Data set [13] has as its system GII.7 VLP, major capsid protein (Human norovirus GII.7).

As a reminder, the Kd is the equilibrium constant for the complex coming apart.

On to “AGTATACGTATTACCTGCAGCCATCTGTGTGAAGACTATATGGCGCTCACATATTTCTTTCCGATATCTCGGAGATCTTGC [SMV-25]”, for which the binding signal in data set [1] was 5.6 T/N ratio; in data set [2] it was 2.4 T/N ratio; in data set [3], 3.5 T/N ratio; in [4] it was 6.2 T/N ratio; in data set [5], 9.4 T/N ratio; in data set [6] it was 1.9 T/N ratio. Also, the binding signal in data set [7] was determined as 2 T/N ratio; in data set [8] it was 12.4 T/N ratio; in data set [9], 5.4 T/N ratio; in data set [10], 10.4 T/N ratio; in data set [11], 11 T/N ratio; in [12] it was 7.3 T/N ratio. Further, in data set [13], the binding signal is 9.1 T/N ratio. In addition, the dissociation constant (Kd) in [8] is 0.232 µM.
On to “AGTATACGTATTACCTGCAGCCCATGTTTTGTAGGTGTAATAGGTCATGTTAGGGTTTCTGCGATATCTCGGAGATCTTGC [SMV-21]”, for which the binding signal in data set [1] came to 4.3 T/N ratio; in [2], 3.8 T/N ratio; in data set [3], 8.1 T/N ratio; in [4], 4.6 T/N ratio; in data set [5] it was 8.6 T/N ratio; in data set [6] it was 6.6 T/N ratio. Further, the binding signal in [7] amounted to 12.2 T/N ratio; in data set [8], 18.1 T/N ratio; in data set [9], 11.8 T/N ratio; in [10], 6.4 T/N ratio; in data set [11], 11.3 T/N ratio; in data set [12], 3 T/N ratio. The binding signal in [13] was 13.5 T/N ratio. The dissociation constant Kd in data set [8] turned out to be 0.101 µM.
Turning to “AGTATACGTATTACCTGCAGCCACCAGTGTGTTGAGGTTTGAGCACACTGATAGAGTGTCACGATATCTCGGAGATCTTGC [SMV-19]”, the binding signal in data set [1] is 1.7 T/N ratio; in data set [2] it was 3.7 T/N ratio; in data set [3] it was 10.3 T/N ratio; in [4], 1.7 T/N ratio; in data set [5], 7.1 T/N ratio; in [6], 1.5 T/N ratio. Further, the binding signal in [7] was determined as 3 T/N ratio; in [8], 12.9 T/N ratio; in data set [9], 1.7 T/N ratio; in [10], 9.6 T/N ratio; in data set [11] it was 12.5 T/N ratio; in data set [12], 1.8 T/N ratio. Moreover, in data set [13], the binding signal turned out to be 4 T/N ratio. Besides, the Kd in [8] amounted to 0.191 µM.
Take “AGTATACGTATTACCTGCAGCTGACCGAGTGTCTGGTCATTTTCGATGTCTGTTGTTAGGCCGATATCTCGGAGATCTTGC [SMV-26]”: the binding signal in data set [1] was 1.1 T/N ratio; in data set [2], 1.5 T/N ratio; in data set [3] it was 1.8 T/N ratio; in data set [4], 1.2 T/N ratio; in [5] it was 2.1 T/N ratio; in data set [6] it was 2.4 T/N ratio. For the same sequence, the binding signal in data set [7] came out at 1.3 T/N ratio; in data set [8], 4.1 T/N ratio; in data set [9] it was 2.4 T/N ratio; in data set [10] it was 3.2 T/N ratio; in [11] it was 2.8 T/N ratio; in data set [12], 2.8 T/N ratio. Besides, the binding signal in data set [13] is 2.8 T/N ratio. Further, the Kd in data set [8] is 0.281 µM.

Source of the values: PMC4156411.
